Article PMC3830444

Biological target: FPR-chloromethyl ketone-thrombin (active site-inhibited α-thrombin) (human), P00734
Assay: ELISA

GDFEPIPEDAYDE (modifications not checked) [H6HV3_(54-66)G6 synthetic peptide]
IC50: 5 µM
